Results from patent publication US20180362668A1 (JIANGSU ALPHAMAB BIOPHARMACEUTICALS, published 2018).
Changes are numbered by the printed parent chain. In names and notes the source's numbering stands.

B1: ScFv-Fc fusion protein chain A with Y349C + T366W + K409A + L368E (Fc fusion)
chain: EVQLLESGGGVVQPGRSLRLSCIASGFTFSSYPMTWVRQAPGKGLEWVASISYDGSYKYKADSMKGRLTISRDNSKNTLYLEMNSLTAEDTAVYYCARTAFFNAYDFWGQGTLVTVSSASTKGPSVGGGGSGGGGSEIVMTQSPATLSVSPGERATLSCRASQSVRSNLAWYQQKPGQAPRLLIYAASTRATGIPARFSGSGSGTEFTLTISSLQSEDFAVYYCQQYNEWFRTSGQGTKVEIKRDKTHTCPPCPAPELLGGPSVFLFPPKPKDTLMISRTPEVTCVVVDVSHENPEVKFNWYVDGVEVHNAKTKPREEQYNSTYRVVSVLTVLHQDWLNGKEYKCKVSNKALPAPIEKTISKAKGQPREPQVCTLPPSRDELTKNQVSLWCEVKGFYPSDIAVEWESNGQPENNYKTTPPVLDSDGSFFLYSALTVDKSRWQQGNVFSCSVMHEALHNHYTQKSLSLSPGK
notes: Positions are EU index; also called combination 9 chain A
B2: ScFv-Fc fusion protein chain A with Y349C + T366W + K409A + K360E + Q347E (Fc fusion)
chain: B1 chain with Q371E, K384E, E392L
notes: Positions are EU index; also called combination 7 chain A
B3: ScFv-Fc fusion protein chain A with Y349C + T366W + F405K + K360E + Q347E (Fc fusion)
chain: B1 chain with Q371E, K384E, E392L, F429K, A433K
notes: Positions are EU index; also called combination 5 chain A
B4: ScFv-Fc fusion protein chain A with Y349C + T366W + F405K + Q347R (Fc fusion)
chain: B1 chain with Q371R, E392L, F429K, A433K
notes: Positions are EU index; also called combination 6 chain A
B5: ScFv-Fc fusion protein chain A with Y349C + T366W + K409A + Q347R (Fc fusion)
chain: B1 chain with Q371R, E392L
notes: Positions are EU index; also called combination 8 chain A
B6: Fc protein chain B with D356C + T366S + L368A + Y407V + K360E + Q347E (other)
chain: DKTHTCPPCPAPELLGGPSVFLFPPKPKDTLMISRTPEVTCVVVDVSHEDPEVKFNWYVDGVEVHNAKTKPREEQYNSTYRVVSVLTVLHQDWLNGKEYKCKVSNKALPAPIEKTISKAKGQPREPEVYTLPPSRCELTENQVSLSCAVKGFYPSDIAVEWESNGQPENNYKTTPPVLDSDGSFFLVSKLTVDKSRWQQGNVFSCSVMHEALHNHYTQKSLSLSPGK
notes: also called combination 6 chain B
B7: Fc protein chain B with D356C + T366S + L368A + Y407V + F405K + Q347R (other)
chain: B6 chain with E127R, E140K, F185K
notes: also called combination 7 chain B

Target: the molecule itself
Test: non-reducing SDS-PAGE densitometry of Protein A-purified co-transfection product; chain A:chain B vectors 1:1
Excerpt: The cotransfection ratio of recombinant expression vector of the chain A to that of the chain B was 1:1.

Protein | ScFv-Fc homodimer (%) | Proportion of Fc homodimer (%)
B1 | 39 | –
B2 | 24 | –
B3 | 14 | –
B4 | 14 | –
B5 | 21 | –
B6 | – | 24
B7 | – | 12
